Consider two molecules from patent US20210347900A1 (AstraZeneca / MedImmune, published 2021).

Read-outs that look alike come from different tables or passages of the source.

Test [1] addresses T1, Human SR-B3 (CD36) (human, UniProt P16671 30-439).
T1 construct: Bought protein; also called Platelet glycoprotein 4
In words: IgG binding ELISA on coated antigen, absorbance at 450 nm. In general terms: In an ELISA, binding on a coated surface is turned into a signal by an enzyme label.

For test [2], the target named is T2, Human CLEC-7A (Dectin-1) (human, UniProt Q9BXN2-2 66-201, limits assumed).
T2 construct: Bought protein; also called C-type lectin domain family 7 member A
T2 sequence (looked up): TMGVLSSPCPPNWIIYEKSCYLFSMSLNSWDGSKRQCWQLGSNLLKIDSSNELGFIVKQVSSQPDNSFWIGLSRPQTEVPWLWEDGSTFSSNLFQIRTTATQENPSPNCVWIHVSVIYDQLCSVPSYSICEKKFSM
Described as above.

Test [3] has as its target T3, Human CLEC-1B (CLEC-2) (human, UniProt Q9P126 58-229, limits assumed).
T3 construct: Bought protein; also called C-type lectin domain family 1 member B
The test is described as above.

Test [4] concerns the target T4, Human CLEC-1A (human, UniProt Q8NC01 74-280, limits assumed).
T4 construct: Bought protein; also called C-type lectin domain family 1 member A
T4 sequence (looked up): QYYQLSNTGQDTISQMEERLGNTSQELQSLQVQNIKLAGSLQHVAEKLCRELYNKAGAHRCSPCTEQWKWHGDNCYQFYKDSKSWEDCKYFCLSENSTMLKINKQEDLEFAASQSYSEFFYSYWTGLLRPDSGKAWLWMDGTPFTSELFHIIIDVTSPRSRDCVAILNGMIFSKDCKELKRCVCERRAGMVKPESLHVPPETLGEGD
The test is described as above.

Test [5] concerns the target T5, Human SR-A1 (MSR) (human, UniProt P21757 77-451).
T5 construct: Bought protein; also called Macrophage scavenger receptor types I and II
T5 sequence (looked up): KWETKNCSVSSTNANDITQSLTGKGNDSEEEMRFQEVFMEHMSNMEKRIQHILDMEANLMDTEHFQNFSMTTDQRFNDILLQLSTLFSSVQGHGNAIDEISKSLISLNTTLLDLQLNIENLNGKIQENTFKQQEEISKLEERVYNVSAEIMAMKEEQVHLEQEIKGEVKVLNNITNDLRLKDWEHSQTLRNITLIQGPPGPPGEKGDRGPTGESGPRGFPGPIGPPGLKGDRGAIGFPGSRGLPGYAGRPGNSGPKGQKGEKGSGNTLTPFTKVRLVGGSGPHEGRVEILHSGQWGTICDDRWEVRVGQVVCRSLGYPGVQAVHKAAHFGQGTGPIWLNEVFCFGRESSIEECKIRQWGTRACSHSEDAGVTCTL
Described as above.

For test [6], the target named is T6, Human CLEC-4L (DC-SIGN) (human, UniProt Q9NNX6 62-404).
T6 construct: Bought protein; also called C-type lectin domain family 4 member L
T6 sequence (looked up): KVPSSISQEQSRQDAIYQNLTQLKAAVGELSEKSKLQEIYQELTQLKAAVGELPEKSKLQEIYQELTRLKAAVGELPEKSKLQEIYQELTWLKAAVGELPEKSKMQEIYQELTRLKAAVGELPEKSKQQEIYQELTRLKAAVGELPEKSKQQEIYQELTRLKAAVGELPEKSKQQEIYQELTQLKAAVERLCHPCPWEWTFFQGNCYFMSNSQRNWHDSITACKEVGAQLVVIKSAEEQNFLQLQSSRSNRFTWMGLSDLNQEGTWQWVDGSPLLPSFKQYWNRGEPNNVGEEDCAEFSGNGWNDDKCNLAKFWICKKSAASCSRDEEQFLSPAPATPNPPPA
The test is described as above.

The target of test [7] is T7, recombinant human LOX1 (R&D Systems) (human, UniProt P78380 61-273). In words: competition with biotin CRP on plate-bound recombinant human LOX1, DELFIA.
The target of test [8] is T8, human LOX1 on cells (human LOX1 transfected CHO TREX cells) (human, UniProt P78380 1-273).
T8 construct: whole, on cells; also called hLOX1 transfected cells; hLOX1 CHO
In words: competition with DyLight 649 AGE-BSA on hLOX1 CHO TREX cells (FMAT); row label not given, assay assigned by block order of Table 5.

In test [9] the target is T8, human LOX1 on cells (human LOX1 …). Nature of the test: competition with DyLight 649 AGE-BSA on human LOX1 CHO TREX cells, FMAT.
Test [10] shares this target. In words: saturation binding of DyLight 649 labelled antibody on hLOX1 CHO TREX cells (FMAT); DyLight 649 labeled antibody on hLOX1 CHO TREX cells.
Test [11] concerns the target T7, recombinant human LOX1 (R&D Systems). In words: competition with biotin CRP on immobilised recombinant hLOX1 (DELFIA); row label not given, assay assigned by block order of Table 5.
The target in test [12] is T8, human LOX1 on cells (human LOX1 …). Nature of the test: cell-based or functional assay.
For test [13] the target is unchanged. In words: competition with DyLight 649 oxLDL on hLOX1 CHO TREX cells (FMAT); row label not given, assay assigned by block order of Table 5.
The target of test [14] is T7, recombinant human LOX1 (R&D Systems). Nature of the test: competition with biotin CRP on plate-bound recombinant human LOX1, DELFIA. The source holds these as a separate data set.
Test [15] deals with T8, human LOX1 on cells (human LOX1 …). In words: competition with DyLight 649 oxLDL on hLOX1 CHO TREX cells (FMAT), mean.
For test [16] the target is unchanged. Nature of the test: competition with DyLight 649 AGE-BSA on human LOX1 CHO TREX cells, FMAT. The source holds these as a separate data set.
The target of test [17] is T1, Human SR-B3 (CD36). Nature of the test: IgG binding ELISA on coated antigen, absorbance at 450 nm. The source holds these as a separate data set.
Test [18] deals with T2, Human CLEC-7A (Dectin-1). The description is as above. The source holds these as a separate data set.
Test [19] addresses T3, Human CLEC-1B (CLEC-2). Described as above. This is another data set of the same source.
Test [20] deals with T4, Human CLEC-1A. The test is described as above. This is another data set of the same source.
In test [21] the target is T5, Human SR-A1 (MSR). Described as above. This is another data set of the same source.
The target in test [22] is T6, Human CLEC-4L (DC-SIGN). The description is as above. This is another data set of the same source.
Test [23] deals with T7, recombinant human LOX1 (R&D Systems). In words: competition with biotin CRP on immobilised recombinant hLOX1 (DELFIA), mean.
The target of test [24] is T8, human LOX1 on cells (human LOX1 …). In words: cell-based or functional assay. The source holds these as a separate data set.
The target in test [25] is T9, human LOX1 SNP K167N variant on cells (K167N SNP transfected CHO TREX cells) (human, UniProt P78380 1-273).
T9 construct: whole, on cells; also called hLOX1 K167N; K167N hLOX1 CHO
Nature of the test: competition with DyLight 649 oxLDL on K167N hLOX1 CHO TREX cells (FMAT), mean.

For test [26], the target named is T9, human LOX1 SNP K167N variant on cells …. In words: competition with DyLight 649 oxLDL on human LOX1 K167N CHO TREX cells, FMAT.
The target in test [27] is T8, human LOX1 on cells (human LOX1 …). In words: competition with DyLight 649 AGE-BSA on hLOX1 CHO TREX cells (FMAT), mean.
The target in test [28] is T10, mouse LOX1-(FlagHis) extracellular domain (mouse, UniProt Q9EQ09 55-363).
T10 construct: extracellular domain
Nature of the test: IgG binding ELISA on coated antigen, europium anti-human IgG detection.

Test [29] concerns the target T11, rabbit LOX1-(FlagHis) extracellular domain (rabbit, UniProt Q9XTA8 55-274).
T11 construct: extracellular domain
Described as above.

Test [30] addresses T12, rat LOX1-(FlagHis) extracellular domain (rat, UniProt O70156 55-364).
T12 construct: extracellular domain
The test is described as above.

Test [31] deals with T8, human LOX1 on cells (human LOX1 …). Nature of the test: competition with DyLight 649 oxLDL on human LOX1 CHO TREX cells, FMAT.

T1 sequence (P16671 30-439 limits assumed): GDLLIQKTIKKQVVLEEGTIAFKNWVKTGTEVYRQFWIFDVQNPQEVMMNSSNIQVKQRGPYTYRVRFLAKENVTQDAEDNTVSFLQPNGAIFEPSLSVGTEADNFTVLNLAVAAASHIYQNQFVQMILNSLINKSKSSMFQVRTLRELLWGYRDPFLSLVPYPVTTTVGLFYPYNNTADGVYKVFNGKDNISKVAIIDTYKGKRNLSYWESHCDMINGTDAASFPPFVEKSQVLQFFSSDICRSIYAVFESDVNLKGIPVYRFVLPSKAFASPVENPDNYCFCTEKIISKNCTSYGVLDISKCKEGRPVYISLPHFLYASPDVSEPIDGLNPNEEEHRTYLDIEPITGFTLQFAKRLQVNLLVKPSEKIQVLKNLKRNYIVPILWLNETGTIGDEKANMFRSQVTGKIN
T3 sequence (Q9P126 58-229 limits assumed): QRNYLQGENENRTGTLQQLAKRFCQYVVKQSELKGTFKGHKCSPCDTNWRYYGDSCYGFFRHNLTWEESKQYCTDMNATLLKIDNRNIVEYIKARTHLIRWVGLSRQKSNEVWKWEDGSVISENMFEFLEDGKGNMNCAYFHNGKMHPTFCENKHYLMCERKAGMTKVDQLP
T10 sequence (Q9EQ09 55-363): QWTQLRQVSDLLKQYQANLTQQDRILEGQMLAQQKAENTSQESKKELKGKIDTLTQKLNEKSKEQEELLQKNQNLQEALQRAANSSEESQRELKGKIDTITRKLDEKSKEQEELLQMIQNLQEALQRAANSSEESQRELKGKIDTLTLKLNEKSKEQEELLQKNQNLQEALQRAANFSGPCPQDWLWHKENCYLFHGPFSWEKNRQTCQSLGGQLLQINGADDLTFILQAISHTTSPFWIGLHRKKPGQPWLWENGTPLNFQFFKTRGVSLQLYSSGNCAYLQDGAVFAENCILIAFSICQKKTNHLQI
T11 sequence (Q9XTA8 55-274): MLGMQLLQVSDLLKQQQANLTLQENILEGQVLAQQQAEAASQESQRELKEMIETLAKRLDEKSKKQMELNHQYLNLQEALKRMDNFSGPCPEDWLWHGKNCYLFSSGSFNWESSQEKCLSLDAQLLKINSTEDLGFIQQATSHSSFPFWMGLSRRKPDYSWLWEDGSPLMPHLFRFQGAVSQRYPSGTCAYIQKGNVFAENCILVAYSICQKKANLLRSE
T12 sequence (O70156 55-364): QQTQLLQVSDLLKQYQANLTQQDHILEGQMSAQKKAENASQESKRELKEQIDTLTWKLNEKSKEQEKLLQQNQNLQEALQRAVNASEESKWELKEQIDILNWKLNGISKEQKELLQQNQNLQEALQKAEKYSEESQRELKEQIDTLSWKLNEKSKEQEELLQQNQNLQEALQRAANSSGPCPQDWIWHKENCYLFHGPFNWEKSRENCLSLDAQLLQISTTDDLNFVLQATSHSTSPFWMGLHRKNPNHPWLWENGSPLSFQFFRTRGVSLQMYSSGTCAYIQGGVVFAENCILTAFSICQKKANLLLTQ

B1: LOX514 IgG1-TM (antibody, V domains shown)
VH: QVQLVQSGAEVKKPGASVKVSCKVSGYTLTELSMHWVRQAPGKGLEWMGGFDPEDGETIYAQKFQGRVTMTEDTSTDTAYMELSSLRSEDTAVYYCATPNGQQGKGVRGWDYYYGMDVWGRGTTVTVSS
VL: QSVVTQPPSVSGAPGQRVTISCTGSSSNIGAGYDVHWYQQLPGTAPKLLIYGNSNRPSGVPDRFSGSKSGTSASLAITGLQAEDEADYYCQSYDSSLSGWVFGGGTKLTVL
notes: Whole human IgG1-TM (L234F/L235E/P331S); Labelled with DyLight 649 in Assay 7; also called LOX10514-IgG1-TM; LOX10514 IgG1-TM
In general, IC50 refers to the midpoint of a concentration-inhibition curve. Usually Kd stands for the equilibrium constant for the complex coming apart. Low values mean higher affinity, high ones lower affinity. As to B1, the binding result in the test with Human SR-B3 (CD36) [1], with Human CLEC-7A (Dectin-1) [2], with Human CLEC-1B (CLEC-2) [3], with Human CLEC-1A [4], in the test with Human SR-A1 (MSR) [5] and with Human CLEC-4L (DC-SIGN) [6] was “no binding (tested: 0.2 µg/mL (single concentration))” throughout. Moreover, the “IC50 (read off the curve)” value in test [7] was approximately 2 nM; in test [9], approximately 0.1 nM. Moreover, the figures for the IC50 in test [8], in [11] and in test [13] were 0.207 nM, 1.98 nM and 0.642 nM, respectively. Besides, the dissociation constant Kd in test [10] came out at 0.8 nM. In addition, in test [12], the “IC50 of inhibition of Cypher 5E oxLDL internalization in hLOX1 CHO TREX cells (row label not given; assay assigned by block order of Table 5)” value amounted to 0.772 nM. Also, the “IC50 of inhibition of oxLDL-dependent ROS generation in hLOX1 CHO TREX cells (row label not given; assay assigned by block order of Table 5)” value in [12] is 8.28 nM.

B2: LX6960073_G82bS_gl IgG1-TM (antibody, V domains shown)
VH: EVQLVESGGGLVQPGRSLRLSCAASGFTSDDYAMHWVRQAPGKGLEWVSGISWNSGSIGYADSVKGRFTISRDNAKNSLYLQMNSLRAEDTAVYYCAREGSWNYDALDIWGQGTMVTVSS
VL: QSALTQPASVSGSPGQPITISCTGTSSDVGGYNYVSWYQQHPGKAPKLMIYDVSKRPSGVSNRFSGSKSGNTASLTISGLQAEDEADYYCMGGMGRSTNWVFGGGTKLTVL
notes: Whole human IgG1-TM, germlined, with heavy chain G82bS (Kabat); also called LOX10696_73
In the case of B2, the “IC50 (read off the curve)” value in test [14] is approximately 3 nM; in test [16] it was approximately 0.02 nM; in test [26], approximately 0.3 nM; in test [31] it was approximately 0.8 nM. The IC50 in test [15] came to 0.02 nM; in [23], 3 nM; in test [25] it was 0.105 nM; in test [27], 0.0177 nM. The binding result with Human SR-B3 (CD36) [17], with Human CLEC-7A (Dectin-1) [18], with Human CLEC-1B (CLEC-2) [19], with Human CLEC-1A [20], with Human SR-A1 (MSR) [21] and with Human CLEC-4L (DC-SIGN) [22] was “no binding” each time. For the same molecule, the binding result in test [28], in [29] and in [30] was “no binding (tested: 10 µg/mL (single concentration))” throughout. The “ROS ASSAY (IC50, mean)” value in test [24] turned out to be 2.21 nM. In addition, in test [24], the “oxLDL/hLOX1 CHO Internalisation (IC50, mean)” value stood at 0.38 nM.
